In the DeepSol protein solubility set:

Assay: soluble on expression in E. coli; label from the status in PepcDB or PDB records

For “MRKLWPLALLLAACGAQDVGAGLDPLRLTATSLPPAYLGEPYSASLAAEGGVRPYSFTLDGKLPEGLSFQGGRLFGVPKEKGSFPLLLTVEDAAKNSRAQRLTLTVSDPPPPRLALVLPPAQVEGPFLLLARVEGREAVGFQMEVRLADLEPDLAGLKALSPAHLLDYDPATRLLRLDMAFAKPVKDREAFRFLLTPQKPLVPRLSPKVVFYDKEGKPLGQPLPRGKPFAELLRLAQAWGREGKALKEDLDGDGKVGEADLRLLAQGYFPKPETPSPEVPGGGEGQASGEEQAP”, which “soluble on expression in E. coli” value is on record?
The value was “soluble”.

For “GPPQMSATNEDLKTNFHSLHNQMRQMPMSHFREALDAPDYSGMRQSGFFAMSQGFQLESHGGDVFMHAHRENPQCKGDFAGDKFHISVQREQVPQAFQALSGLLFSVDSPIDKWKVTDMERVDQQSRVAVGAQFTLYVKPDQENSQYSASSLHNTRQFIECLESRLSESGLMPGQYPESDVHPENWKYVSYRNELRSGRDGGEMQSQALREEPFYRLMAE”, which “soluble on expression in E. coli” value is on record?
The value was “soluble”.

With “MRRAAIFFFYDERGQVDDYIFYLLEKLRPFVETIIFVSNGEISQSSEASLRSTVDETIIRENTGFDVGAYRDGLEFIGYDKLGDYDEILLLNHTFYGPVFPFSEMFSEMERRACDFWGISDHKEVSPNPFTGAGVLPRHLNSHFIAVRKAMLESIAFRNYWERMPKITDYAESVLLHESRFTGFFENLGYKSETYLDSDKYNSAYPVMIDVDQIYNDRSPILKRRLFFNDPTFLDKNAVDLPRALRVLKETSDYDLNLIWRNVLRSSDLRTLNTNAALMSVLPDKRIKGDGAAADYGKIAVCAHIYYTDMLDEILGLTGNIPVPYDFIATTNTPEKKAEIETALANRPGVKNVIVRVVEQNRGRDMSSLFISLRDLLVDDRYDLVCRLHTKKSPQVQSSMGNLFKRHMVDNLLNSRGYVHNVLDMFHDNPSVGLAIPPIFHISYPTMGFSWFANKPKVEETARLLNINVKFDENTPVAAYGTMFWFRPRALRKMFEHKWKWEEFNAEPDHVDGGFAHALERLIAYAVQNAGYTTQHIMCAHQAEHNYTMLEFKLQKLASFMPSGDFPLQCHMVSEWRKGGYPLGSHVSATPAPMPTSVKHSLAELNLAVKSSLRFRAPILFRALRPIYRGTRAILKPNSRRSGGLEHHHHHH” as the sequence, how does the “soluble on expression in E. coli” value read?
Its value is “soluble”.

Which “soluble on expression in E. coli” value does the source give for “MSLERIDIASVKGGVGKSFIAYFLSKTLAASHKILLIDKDLTSTLSRVYNIKGNLLSYLTVGQSSLAYFKEVDSGLTVVNVGCSRKIKNVEPKKIADIYSGFSDHDLMIVDNPSIPSDVCLDTELQAYYTYLNEKRLDYNLILILPPNQLLLDESLAFMQLFKDYIKNELSISLGNDLVNFDVISSVINMYNPRERIDISKIKDLTSKIVKIPFKKEAIYTPFNQLNTPMEISELAKYVLEYLESREGHHHHHH” here?
Its value is “soluble”.

With “MSVIKLKSKLKYCHYAYDDEGYVIHMLTSNERTFFTNAYIIETKNSIVVVDTLMVNSDAILLRQYMDNINKPLIAVIITHGHPDHYNGTEIITGFKEVPIISTKGIRDCIQDTVDSKEVKWKPYFGQDWPEHKILPNQLVIDSEVVNLDGLDYSFRDLGAAESSSDLFFTLGEKRSVIFVGDVVFNNMHGFMNDGNSAQWLKVLQKLLTEIADVKLLFTGHGDPGDTHQLVQRQIDYISHYRSNLLAIIRGNQLEHHHHHH” as the sequence, how does the “soluble on expression in E. coli” value read?
Its value is “not soluble”.

For “MAERETYADFSVVEKQRNFLTAEEFPEGPYGSPRRDDAPVENKSTPWKEGQRHYSAFNYEFKSFHQNIPRRDPAAHPPHDDPHQSEQFPYNEGE”, which “soluble on expression in E. coli” value is on record?
Its value is “not soluble”.

With “MYVYDEYDQRIVEDRVKQFRDQTRRYLAGELTGEEFRPLRLQNGLYIQRYAPMLRIAVPYGLLSSRQLRKLAQIARDYDKGYAHISTRQNVQFNWPELEDVPEILAELATVQMHAIQTSGNCIRNTTTDQFAGVARDELVDPRPWCEIIRQWSTFHPEFAHLPRKFKIAVNGAVSDRAAIEVHDIGLEAVKNEAGELGFRVSVGGGLGRTPIVGSFINEFLPWQHLLGYLDAILRVYNRYGRRDNKYKARIKILVKALTPEVFAERVEAEWANLKDGPSTLTEAEVQRVAAHFVDPAYKALDDLDESLARLDAEHPGFARWRARNTFAHKKPGYVAVTLSLKPTGTAPGDVTDKQLEAIADLADRYSFGEVRNSHNQNIILADVEQGELFALWGELRELGFATPNVGLLTDIICCPGGDFCSLANAKSIPIAEAIQRRFDNLDYLFDIGDIDLNISGCMNACGHHHVGHIGILGVDKKGAEFYQVSLGGSSARDASLGQILGPSFAQEQMADVIDKIIQVYVERRTEEEPFIDTFRRIGIDPFKERVYAAN” as the sequence, how does the “soluble on expression in E. coli” value read?
The value was “not soluble”.

With “WAALHEGLNIRQAEVHGMSQRGGAVQSHLRISDQELFADLIGLGTGDLILSVEPLEALRYLPYLAPDGRIVTSLDPFVNMTGYPPMEEIEAELGKTGRPVLVHAADLAKDAGSARASNMVMLGAGAPFAGIAPSKLEASIEALFSTKGQEVVDINIRAFRKGLQL” as the sequence, how does the “soluble on expression in E. coli” value read?
Its value is “not soluble”.

For “MYHVFFNRRPTRPRLPRALYEQLAALPLNTEVNVHTTNETHYNALFLGFEPRTNNVSLLVDRFYKDGGRSLAIDATTITAIDLPVSMRPASSADSDDEEE”, which “soluble on expression in E. coli” value is on record?
The value was “not soluble”.

With “GMIEKVYEFKRDAKTKVVEKLVNTEHVQINHIVLPRGEQMPKHYSNSYVHLIIIKGEMTLTLEDQEPHNYKEGNIVYVPFNVKMLIQNINSDILEFFVVKAPHPKKLNAPEDPIKCE” as the sequence, how does the “soluble on expression in E. coli” value read?
The value was “soluble”.

With “GPGSMKTIALLSGGKDSILAMLMAHRYGHEPVVIANMAPVLESDGALRGAAENGTHGHDIDSYMYQTVGFEAVDSIAACLGLPLRRGRVRRGLAKDQSLLYSEQPPEEDEVESLYSLIRTVKEEFPEVQGLTSGAILSNYQRNRVELICDRLGLESLAYLWMRQPDEILDMADALHVQAILVKTASIGLMPRCLIGKTLEEARPTLEKMAELYHSHLAGEGGEYETIVLNCPLFHAEHLTVTALEVVMQDDNDISPSGHGLLTVARVPKSVEQQAKEAEVLARVRAGAVTFPSDTMPLLRSCAVYPLALSATASARGPGETIDLPLPATIRSALFLGSGTAAARDGIAHHTYASPLEAGASAAEALNACLTVLQTWAAERSLTPFYYHFSLPEPSWEVSCRAAYAGKVSHVCPPGLLVTVRDSRSRSAAAVEAEVLAAPTAAIQQHVLHAQSRSCWALGEPGPHSQARRVGLATGTSRLFVSATPGRVPATREVATASDLPAVCQQCITALAAAQHGEETSAALTDIAAQFVVAMSNCERYLTLFGCSFGDVDRAAVVATDDVPVSLLPALWQWTTQNTGALPFERVCQVVVVGALSGTEKIRVSMECVEVRGGGG” as the sequence, how does the “soluble on expression in E. coli” value read?
Its value is “not soluble”.

With “MSIIGRFKDIMSANINALLDKAENPEKMVDQYLRNMNSDLAKVKAETAAVMAEEQRAKREYHECQADMEKMESYAMKALQAGNESDARKFLERKTSLESKLSELQAANQIAATNAAQMRKMHDKLVSDIGELEARKNMIKAKWAVAKTQERMNKLGASVSSTSQSMSAFGRMEDKVNKALDQANAMAELNSAPQDDMADLSAKYDTGGSSQVDDELAALKAKMMLDKLEHHHHHH” as the sequence, how does the “soluble on expression in E. coli” value read?
Its value is “not soluble”.

Which “soluble on expression in E. coli” value does the source give for “GSPGISGGGGGILDSMVEKEEPKEEEKLGKLQYSLDYDFQNNQLLVGIIQAAELPALDMGGTSDPYVKVFLLPDKKKKFETKVHRKTLNPVFNEQFTFKVPYSELGGKTLVMAVYDFDRFSKHDIIGEFKVPMNTVDFGHVTEEWRDLQSAE” here?
The value was “soluble”.

Which “soluble on expression in E. coli” value does the source give for “MSLQIIEPDNLIKEGDLRSIRAKTLQSARGIISDRNGEALAVSVPVEAVWADPVAIYKEGGLVEKDRWYALADVLGLDRQEMMKKIEDNRSRRFIYLQRQVSPAMAKYIRELKLAGIGLKEESRRYYPAGEVSAHLVGVTGIDGHGLEGVERSFDSTLTGESGKSVTRKDKFGRVVENIALEEREEGKPIQLTIDQRLQAIAFRAVKQAMADYRATSASAVMLDVKTGAVLAMVNAPSYNPNNRNDWQSFKMRNRVITDAFEPGSTVKPFVVLAALANGIADKNTIIDTGDGTMQIGGSRVRDTSKVGKADLTLILKKSSNIGVAKLALEMPLEALLGMYSSVGLGEMSGLDLVGETIGIFPNRRRWSQFEIATLSFGYGLAITPIQLAHAYATLGNHGKYQPIHIIKGDQHGETRQVVDPKYVNQVLEMLETVTQPGGTATRAAVPGYRIAAKSGTSRKAIAGGYSDEYFAYTAGVAPVSDPRISLVVMVNEPQGDSYYGGAVAGPVFSEIMKGALQILNIAPDENRFQNEGHHHHHH” here?
The value was “soluble”.

Which “soluble on expression in E. coli” value does the source give for “MCLGIPARVVEVLDGPLPMAVVDMAGEQRPCSVMYVPEVQVGQFVLLQNGYAMEVLDEKSAQESLATIAEFNLVQQVQLAPREPR” here?
Its value is “not soluble”.

For “MRVITVAGPPSVGKTSVVVKTATTLAAQGHRLGIVKFDSLSTSDDQVYRRAGLPVVVGLSGNVCPDHFFVSNIDDCVDWGRTHGVDILVAESAGLCNRCSPHVQGVQAICVVDNLSGVHTPRKIGPMLKLADVVVITKGDIVSQAEREVFAYNVRLANPRAQVMQFHGITGQGASDLAARMLCAPVVDALEGRRLRFSMPSAVCPYCIGETAIGVDHQRGNVRKMSFAEPARLEHHHHHH”, which “soluble on expression in E. coli” value is on record?
The value was “soluble”.

For “MKVRADFAFEKVARDWFVRWSKGRSEKYAGQVMRNFERWVFPAIGNLDIRQVRTADVVGCLRVMEARGIVDTLRKTKNSLKMVFAFAVGSGMMEINPVAQIGSGVFERLEHHHHHH”, which “soluble on expression in E. coli” value is on record?
The value was “soluble”.

Which “soluble on expression in E. coli” value does the source give for “MGSDKIHHHHHHMGKAMDLPAETREAANNVIKMQRDADWQNDFKKNSDDGIKTQSLYNIRLIMEHDEMLKGLVAFDEFSEQIVKTPQAENSLFKKGFWNDGDDTLLRSYIEDHYNLLFSKENITDAVVTEARRKTINPVKARIEAVEWDGQPRAERYFINYLGAEDNHYTRTITKKWLTGLIARAYVPGVKFEIVPILEGSQGLGKSTAGKNLYPDKFNDSLKGMGKQKDDYQQLQGSWIIEVAELSAMKKTDIEGIKNFISAQSDTYRNSYGRYALPHPRKCVFIGTTNQTDYLKDATGERRFYPIKCGVNKAKLDVWHPDENYMLQVLAEAAYWFKNGEPLYLDQATMKEAKAYQMAAEAVDPMRDAIEAFLAMEVPTDWENMSTSLKQSYVSDYGHHSKWLQDQVSNERKLLNQTTTREIMEVVFHKTVDRYLTGRTNSEAKRIKLLMDNMDGWKSQRIRMNGQRLHGYMREV” here?
The value was “not soluble”.

For “MGSDKIHHHHHHMKIQPLPPLNSLHAFESAARHLSFTLAAKELNVTQGAISRQVRLLEDYLGKALFTRTTRSMSLTPTGAQYYETVRECMLHLARATGDIRQWQGNQQVTVATSTAMASLWLLPKVSEFQSAHENIDLRIIAHDHVKDYARLDSDLALYYCNPPPKDMAVTPLFSEEIFLVCSPAYLARHPQLSSIEGLSSCTWLWLEDSQRDWVGWPEWFKRLGYEPMTPKHRVNINSYGMLIQSAISGQGVALAWGNLVDDALSTGALVKPNDVVLQTDAKFCLLESSTERGPRESVRLFRDWLMALPSVQK”, which “soluble on expression in E. coli” value is on record?
The value was “not soluble”.

Which “soluble on expression in E. coli” value does the source give for “MWSFRAWRRRRLLARHPVAEELWQRVRRHLPILDGLDADEDRRLRERAVLFLADKHLTALAGVDLDDFGRLLLAAQAQLPLLHLPELNWYQGFHELVLYPDDFVSPQKHRDASGVVHEFDDERSGETSLQGPVVLAWPGVVGGGGWDAYNLVIHELAHKLDMLNGDANGLPPLHAGMRIGDWASAMQAAYDEMNALLDRDPDAQTAIDPYAAEDPAEFFAVTSEYFFTAPDLLHEAYPAVYRQLQLFYRQDPLQRLRRLQAEHPDYREAAGDTTNG” here?
The value was “not soluble”.

With “MKQPPLEDQYQMFGSIALSAFGAELLRHSLLPELLGKDAASLLYWAGKQLARRYPLGTLDDVAVFFERAGWGELSTGEERNDELYIELSGPIIAARFSLYGSCSFQLEAGFLAQQIEQQKRFVTEAVELPPKRDGKARILVKWDRKQAIE” as the sequence, how does the “soluble on expression in E. coli” value read?
Its value is “not soluble”.

Which “soluble on expression in E. coli” value does the source give for “MAGQVVVNDHLADKAGLQVPVEAEIRLKGEDIPFVSRGGLKLARALEEFGIDVADMTAIDVGASTGGFTDCLLQRGARKVYAVDVGYGQLAWKLRQDSRVVNLEKTNIRYLEPGALPETPGLAVIDASFISLDKVLPSTLRLIGEEGVIVALIKPQFEVGRGEVGKGGVVRDEEKHRRVIADVVALAEGLGLMVLGVTESPILGPKGNREFLIHLKKAVGETPPHNR” here?
The value was “not soluble”.
